Measurements as given in article PMC9522360, “Bidirectional sequestration between a bacterial hibernation factor and a glutamate metabolizing protein” (Proceedings of the National Academy of Sciences of the …, 2022).

Target: the molecule itself
Experiment: SEC; size-exclusion chromatography of recombinant YwlG

B1: recombinant YwlG (natural protein, S. aureus)
chain: KDLTMLLDELKDMSFFNKGDICLIGCSTSEVIGEKIGTVGSMEVAETIFNALDVVSKETGVTFAFQGCEHINRAITIEKSQYNPLTMEEVSVVPDVHAGGSLATYAFQHMKDPIVVEHITVPCGIDIGQTLIGMHIKHVCVPVRTSVKQVGQAIVTIATSRPKKIGGERAKYQ
modifications: C69 was oxidized in the crystals
notes: YwlG of Staphylococcus aureus, 174 a.a., locus tag SAUSA300_2068; also called S. aureus YwlG; source: E. coli, purified (described in SI Appendix)
stoichiometry N: 6
